Laboratory results taken from publication PMC3314686 (2012).

B1: GFP-DOR (human DOR/TP53INP2, full length) [modified: [35S]methionine label; [35S]methionine label] [human] / GST-LC3B (full-length proform) [human] (parent complex)
chain 1: MFQRLSSLFFSTPSPPEDPDCPRAFVSEEDEVDGWLIIDLPDSYAAPPSPGAAPAPAGRPPPAPSLMDESWFVTPPACFTAEGPGLGPARLQSSPLEDLLIEHPSMSVYVTGSTIVLEPGSPSPLPDAALPDGDLSEGELTPARREPRAARHAAPLPARAALLEKAGQVRRLQRARQRAERHALSAKAVQRQNRARESRPRRSKNQSSFIYQPCQRQFNY
chain 2: not shown

Variants of: B1
Assay: GST pull-down; in vitro translated [35S]methionine-labelled GFP fusion; three independent experiments; parent: 21; read off a plot
For chain 1 W35A, chain 1 I38A, the response was ~3.4 % Binding.
